# Experimental data published in paper PMC7000336, “Structural insights and activating mutations in diverse pathologies define mechanisms of deregulation for phospholipase C gamma enzymes” (EBioMedicine, 2020).
# T1: Full-length human PLCγ1 (human, UniProt P19174 1-1290)
# T1 construct: phospholipase C gamma 1 (PLCγ1), human, full length; YFP fusions are named only for the lipid array (LiMA), so Myc is surmised here; Cloned in a Gateway-modified pTriEx4 and purified as a His-tagged protein; No removal of tags is described; also called hPLCγ1; intact PLCγ1; source: Freestyle 293F cells, transfected, purified (HisTrap, Superdex 200)
# T1 sequence (looked up): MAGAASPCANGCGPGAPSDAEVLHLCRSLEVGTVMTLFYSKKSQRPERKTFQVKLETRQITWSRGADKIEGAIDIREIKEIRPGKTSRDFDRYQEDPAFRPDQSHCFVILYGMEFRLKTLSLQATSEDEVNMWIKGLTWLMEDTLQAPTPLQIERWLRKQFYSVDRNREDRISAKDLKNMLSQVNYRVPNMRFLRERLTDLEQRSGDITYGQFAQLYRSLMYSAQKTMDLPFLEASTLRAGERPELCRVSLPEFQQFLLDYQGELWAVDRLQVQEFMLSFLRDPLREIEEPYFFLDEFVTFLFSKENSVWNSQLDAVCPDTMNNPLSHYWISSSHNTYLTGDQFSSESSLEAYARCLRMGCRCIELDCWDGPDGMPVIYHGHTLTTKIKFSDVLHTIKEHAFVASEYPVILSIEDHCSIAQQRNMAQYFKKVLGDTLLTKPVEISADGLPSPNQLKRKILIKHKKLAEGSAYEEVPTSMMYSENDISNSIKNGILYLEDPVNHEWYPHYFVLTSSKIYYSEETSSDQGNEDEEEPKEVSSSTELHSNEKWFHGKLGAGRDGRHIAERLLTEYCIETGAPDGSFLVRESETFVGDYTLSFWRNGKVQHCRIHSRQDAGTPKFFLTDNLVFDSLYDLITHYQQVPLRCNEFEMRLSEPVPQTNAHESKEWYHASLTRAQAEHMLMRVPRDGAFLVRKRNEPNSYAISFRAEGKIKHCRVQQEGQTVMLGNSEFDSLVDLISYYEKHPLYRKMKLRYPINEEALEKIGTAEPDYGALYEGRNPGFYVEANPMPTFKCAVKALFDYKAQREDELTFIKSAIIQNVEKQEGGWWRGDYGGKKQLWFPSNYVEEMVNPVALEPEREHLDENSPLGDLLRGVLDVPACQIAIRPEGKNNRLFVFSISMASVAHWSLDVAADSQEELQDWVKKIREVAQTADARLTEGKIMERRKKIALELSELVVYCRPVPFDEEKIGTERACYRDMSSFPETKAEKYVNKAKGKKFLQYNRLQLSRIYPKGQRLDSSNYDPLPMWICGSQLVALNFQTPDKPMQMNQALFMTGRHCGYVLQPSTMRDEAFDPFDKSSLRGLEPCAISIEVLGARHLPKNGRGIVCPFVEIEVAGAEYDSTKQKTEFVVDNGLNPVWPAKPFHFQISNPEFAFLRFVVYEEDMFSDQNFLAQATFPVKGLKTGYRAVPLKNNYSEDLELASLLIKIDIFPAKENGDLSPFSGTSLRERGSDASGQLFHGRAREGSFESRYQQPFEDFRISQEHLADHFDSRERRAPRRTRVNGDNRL
# B1: Human FGFR1 kinase domain (456–774, L457V, Y463F, C488A, Y583F, C584S, Y585F, Y653F and Y654F), FGFR1-1P (domain or fragment, UniProt P11362 456-774, looked up)
# chain: MVAGVSEFELPEDPRWELPRDRLVLGKPLGEGAFGQVVLAEAIGLDKDKPNRVTKVAVKMLKSDATEKDLSDLISEMEMMKMIGKHKNIINLLGACTQDGPLYVIVEYASKGNLREYLQARRPPGLEFSFNPSHNPEEQLSSKDLVSCAYQVARGMEYLASKKCIHRDLAARNVLVTEDNVMKIADFGLARDIHHIDFFKKTTNGRLPVKWMAPEALFDRIYTHQSDVWSFGVLLWEIFTLGGSPYPGVPVEELFKLLKEGHRMDKPSNCTNELYMMMRDCWHAVPSQRPTFKQLVEDLDRIVALTSNQEYLDLSMPLD
# modifications: phosphotyrosine at 766 (pY766; FGFR1-1P)
# notes: The methods call the protein in the complex FGFR1-1P, and the results speak of pY766 in its C-terminal tail; How the phosphorylation was made is not described here; also called FGFR1int; FGFRint; source: E. coli C41 (DE3), purified (HisTrap, Ulp1 cleavage, HiTrap Q, Superdex 75); not shown: His tag, N-terminal, cleaved; SUMO (from the vector pOPINS, cut by Ulp1), N-terminal, cleaved
# What was measured:
# PLCγ1 (Homo sapiens) = PLCγ1 (Homo sapiens) (UniProt P19174); settings: cited from earlier work
# Full-length human PLCγ1 = target: T1, Full-length human PLCγ1; assay: cryo-EM structure; complex of PLCγ1 and FGFR1-1P (mixed 1:10, purified by SEC), cross-linked with BS3 and purified again; 0.6 mg/ml on grids; 25 mM HEPES, 150 mM NaCl, 2 mM TCEP, pH 7.5; no ATP; Titan Krios with Volta phase plate; map at 5–8 Å with known domain structures docked as rigid bodies; settings: both partners purified
Molecule,Kd (PLCγ1 (Homo sapiens)),binding result (Full-length human PLCγ1)
FGFR1 intracellular portion (from UniProt P11362),5 nM,
B1,,binds
